Positions count from the first letter of the chain named.
B1: mAb A (antibody, human IgG4 S228P, kappa, F234A L235A, V domains shown)
VH: EVQLVESGGGLVKPGGSLRLSCAASGFTFSGVSINWVRQAPGKGLEWVSSETTSSGTIYYADSVKGRFTISRDNAKNSLYLQMNSLRAEDTAVYYCARSYYYGMDVWGQGTTVTVSS
VL: DIVMTQTPLSSPVTLGQPASISCRSSQSLVHRNGNTYLSWLQQRPGQPPRLLIYKISNRFSGVPDRFSGSGAGTDFTLKISRVEAEDVGVYYCMQARQFPLTFGGGTKVEIKR
notes: Human IgG4PAA/Kappa
B2: mAb B (antibody, human IgG4 S228P, kappa, F234A L235A)
heavy: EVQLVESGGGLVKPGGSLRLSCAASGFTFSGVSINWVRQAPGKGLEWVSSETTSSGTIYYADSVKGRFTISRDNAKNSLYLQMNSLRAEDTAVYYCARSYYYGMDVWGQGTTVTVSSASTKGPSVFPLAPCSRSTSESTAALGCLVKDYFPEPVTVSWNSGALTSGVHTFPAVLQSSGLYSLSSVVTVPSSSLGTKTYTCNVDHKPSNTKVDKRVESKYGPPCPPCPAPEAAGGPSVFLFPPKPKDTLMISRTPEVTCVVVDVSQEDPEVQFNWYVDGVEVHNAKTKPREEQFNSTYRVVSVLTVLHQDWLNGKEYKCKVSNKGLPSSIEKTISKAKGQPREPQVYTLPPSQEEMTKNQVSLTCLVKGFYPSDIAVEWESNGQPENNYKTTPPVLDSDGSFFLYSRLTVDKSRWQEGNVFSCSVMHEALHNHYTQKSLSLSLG
light: DIVMTQTPLSSPVTLGQPASISCRSSQSLVHRAGNTYLSWLQQRPGQPPRLLIYKISNRFSGVPDRFSGSGAGTDFTLKISRVEAEDVGVYYCMQARQFPLTFGGGTKVEIKRTVAAPSVFIFPPSDEQLKSGTASVVCLLNNFYPREAKVQWKVDNALQSGNSQESVTEQDSKDSTYSLSSTLTLSKADYEKHKVYACEVTHQGLSSPVTKSFNRGEC
notes: Human IgG4PAA/Kappa
B3: mAb C (antibody, human IgG4 S228P, kappa, F234A L235A)
heavy: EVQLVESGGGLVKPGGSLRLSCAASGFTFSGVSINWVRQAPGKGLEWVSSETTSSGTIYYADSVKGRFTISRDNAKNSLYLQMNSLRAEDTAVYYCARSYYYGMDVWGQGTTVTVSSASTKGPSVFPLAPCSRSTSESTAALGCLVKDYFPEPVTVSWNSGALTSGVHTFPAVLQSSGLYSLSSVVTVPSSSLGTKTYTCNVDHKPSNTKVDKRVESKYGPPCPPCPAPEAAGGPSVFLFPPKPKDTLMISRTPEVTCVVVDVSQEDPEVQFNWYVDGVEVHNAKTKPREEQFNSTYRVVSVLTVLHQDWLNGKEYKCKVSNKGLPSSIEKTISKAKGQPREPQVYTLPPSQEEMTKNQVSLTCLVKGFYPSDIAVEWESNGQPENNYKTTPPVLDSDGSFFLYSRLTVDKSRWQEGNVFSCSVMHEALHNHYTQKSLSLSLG
light: B2 light with A33Q
notes: Human IgG4PAA/Kappa

Biological target: rat TrkA receptor expressed in transfected HEK293 cells (rat, UniProt P35739 33-799)
Sequence (P35739 33-799): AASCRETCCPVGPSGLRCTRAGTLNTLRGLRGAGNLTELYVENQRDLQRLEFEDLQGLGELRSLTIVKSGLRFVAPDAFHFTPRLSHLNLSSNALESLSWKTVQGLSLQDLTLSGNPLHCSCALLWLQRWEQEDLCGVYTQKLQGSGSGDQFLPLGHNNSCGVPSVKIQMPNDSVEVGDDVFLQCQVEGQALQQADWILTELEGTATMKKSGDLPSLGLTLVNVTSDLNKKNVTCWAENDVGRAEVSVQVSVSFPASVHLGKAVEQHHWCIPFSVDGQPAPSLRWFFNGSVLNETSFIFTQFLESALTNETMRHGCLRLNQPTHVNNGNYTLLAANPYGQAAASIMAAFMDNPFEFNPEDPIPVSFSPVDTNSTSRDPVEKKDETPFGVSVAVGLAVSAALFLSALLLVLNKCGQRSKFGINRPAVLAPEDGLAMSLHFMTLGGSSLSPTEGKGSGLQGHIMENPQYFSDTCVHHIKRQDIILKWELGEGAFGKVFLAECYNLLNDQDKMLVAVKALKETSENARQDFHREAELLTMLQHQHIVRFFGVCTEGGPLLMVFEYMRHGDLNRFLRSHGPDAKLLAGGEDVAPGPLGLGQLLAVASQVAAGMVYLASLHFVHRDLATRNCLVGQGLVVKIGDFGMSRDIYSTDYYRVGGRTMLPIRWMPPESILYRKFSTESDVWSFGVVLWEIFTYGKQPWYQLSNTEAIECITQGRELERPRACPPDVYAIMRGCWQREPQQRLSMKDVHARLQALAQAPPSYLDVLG
Experiment: cell-based or functional assay

Row | Binder | % Max Inhibition, pTrkA | IC50 (nM), pTrkA | pTrkA counts per second, NGF +0.1 pM mAb | pTrkA counts per second, NGF +1 pM mAb | pTrkA counts per second, NGF +10 pM mAb | pTrkA counts per second, NGF +100 pM mAb | pTrkA counts per second, NGF +1 nM mAb | pTrkA counts per second, NGF +10 nM mAb | pTrkA counts per second, NGF +100 nM mAb | pTrkA counts per second, NGF +1 uM mAb
1 | B1 | 82% | 0.57 nM | 1.83e+06 counts per second | 2.09e+06 counts per second | 2.2e+06 counts per second | 1.69e+06 counts per second | 1.15e+06 counts per second | 710000 counts per second | 544000 counts per second | 580000 counts per second
2 | B2 | 42% | 0.72 nM | 4.79e+06 counts per second | 4.86e+06 counts per second | 4.46e+06 counts per second | 5.16e+06 counts per second | 3.3e+06 counts per second | 2.87e+06 counts per second | 2.34e+06 counts per second | 2.99e+06 counts per second
3 | B3 | 65% | 1.6 nM | 3.38e+06 counts per second | 3.05e+06 counts per second | 3.68e+06 counts per second | 2.95e+06 counts per second | 2.67e+06 counts per second | 1.53e+06 counts per second | 1.58e+06 counts per second | 1.3e+06 counts per second

Biological target: T1, recombinant human TrkA protein (human, UniProt P04629-2 34-407, limits assumed)
T1 sequence (P04629 other isoform, or with tags, fused parts or gaps limits assumed): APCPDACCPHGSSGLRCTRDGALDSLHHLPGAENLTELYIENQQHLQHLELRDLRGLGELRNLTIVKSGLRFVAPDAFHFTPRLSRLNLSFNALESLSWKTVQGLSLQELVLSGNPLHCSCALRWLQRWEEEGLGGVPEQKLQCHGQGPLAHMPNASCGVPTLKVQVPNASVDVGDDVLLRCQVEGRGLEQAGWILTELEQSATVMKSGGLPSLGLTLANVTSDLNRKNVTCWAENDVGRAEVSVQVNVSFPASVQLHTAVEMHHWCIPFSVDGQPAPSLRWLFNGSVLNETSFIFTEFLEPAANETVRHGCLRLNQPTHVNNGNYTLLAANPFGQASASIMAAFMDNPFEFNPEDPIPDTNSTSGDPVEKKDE
Experiment: NGF-blocking ELISA on coated human TrkA, 100 nM btNGF; mAb 0.16 nM
Protocol: (§1) Each row of a 96-well high-binding clear-bottom microtiter plate (Microlon, #655061) was coated overnight at 4° C. with 100 μL/well of recombinant human TrkA protein, diluted to 2 μg/mL in phosphate buffered saline, pH 7.2 (PBS). The next day, the coating solution was removed, and the plate was blocked with 150 μL of Casein-PBS (Thermo Scientific, #37528) for 1 hour at 25° C. with gentle shaking. The plate was then washed three times with PBS supplemented with 0.05% Tween20 (PBST). A two-fold dilution series of exemplified antibodies, along with IgG4 and IgG1 isotype control antibodies, was generated starting at 20 nM in Casein-PBS. 100 μL of the each dilution series sample was added to a well for 30 min at 37° C. with gentle shaking. The plate was then washed three times with PBST. […] The plate was then washed three times with PBST. A 1:3500 dilution of a 1 mg/mL stock solution of streptavidin-HRP (Thermo Scientific, #21130) in Casein-PBS was prepared and […] was added to each well for 20 min at 37° C. with gentle shaking. The plate was washed three times with PBST. […] The reaction was stopped by addition of 100 μL of 1M H₃PO₄ to each well. The absorbance at 450 nm (Abs450) was measured using a SpectraMax 340PC plate reader (Molecular Devices).

Row | Binder | Absorbance 450 nm
4 | B1 | 0.87
5 | B2 | 0.7
6 | B3 | 0.77

Biological target: T1, recombinant human TrkA protein
Experiment: NGF-blocking ELISA on coated human TrkA, 100 nM btNGF; mAb 5 nM
Protocol: as §1

Row | Binder | Absorbance 450 nm
7 | B1 | 0.2
8 | B2 | 0.15
9 | B3 | 0.16

Biological target: T1, recombinant human TrkA protein
Experiment: NGF-blocking ELISA on coated human TrkA, 100 nM btNGF; mAb 1.25 nM
Protocol: as §1

Row | Binder | Absorbance 450 nm
10 | B1 | 0.26
11 | B2 | 0.17
12 | B3 | 0.16

Biological target: T1, recombinant human TrkA protein
Experiment: NGF-blocking ELISA on coated human TrkA, 100 nM btNGF; mAb 0.31 (printed pM, two-fold series gives nM)
Protocol: as §1

Row | Binder | Absorbance 450 nm
13 | B1 | 0.73
14 | B2 | 0.55
15 | B3 | 0.56

Biological target: T1, recombinant human TrkA protein
Experiment: NGF-blocking ELISA on coated human TrkA, 100 nM btNGF; mAb 0.08 nM
Protocol: as §1

Row | Binder | Absorbance 450 nm
16 | B1 | 1.03
17 | B2 | 0.75
18 | B3 | 0.92

Biological target: T1, recombinant human TrkA protein
Experiment: NGF-blocking ELISA on coated human TrkA, 100 nM btNGF; mAb 0.02 nM
Protocol: as §1

Row | Binder | Absorbance 450 nm
19 | B1 | 1.11
20 | B2 | 0.97
21 | B3 | 0.97

Biological target: T1, recombinant human TrkA protein
Experiment: NGF-blocking ELISA on coated human TrkA, 100 nM btNGF
Protocol: as §1

Row | Binder | IC50
22 | B1 | 0.34 nM
23 | B2 | 0.27 nM
24 | B3 | 0.28 nM

Biological target: T2, Mouse TrkA Extracellular Domain (33-417 with 396-401 deletion) (mouse, UniProt Q3UFB7 34-417)
T2 construct: SPR analyte
T2 sequence (Q3UFB7 other isoform, or with tags, fused parts or gaps limits assumed): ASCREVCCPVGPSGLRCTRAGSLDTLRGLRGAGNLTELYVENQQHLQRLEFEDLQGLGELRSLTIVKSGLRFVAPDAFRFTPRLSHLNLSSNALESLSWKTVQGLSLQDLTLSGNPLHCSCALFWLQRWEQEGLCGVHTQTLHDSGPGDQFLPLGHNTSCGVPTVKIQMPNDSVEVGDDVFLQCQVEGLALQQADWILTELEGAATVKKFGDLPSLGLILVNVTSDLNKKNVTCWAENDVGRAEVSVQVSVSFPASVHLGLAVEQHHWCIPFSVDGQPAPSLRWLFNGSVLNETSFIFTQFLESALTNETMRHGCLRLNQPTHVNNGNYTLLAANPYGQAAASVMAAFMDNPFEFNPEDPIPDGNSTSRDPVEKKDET
Experiment: SPR, mAb captured on Protein A chip, 37 C
Protocol: (§2) The binding kinetics and affinity of exemplified antibodies to human, cynomolgus monkey, rat, mouse, and rabbit TrkA are determined as described below using a surface plasmon resonance assay on a BIACORE™ 8K instrument (GE Healthcare). Two different isoforms of human TrkA (isoform 1 and isoform 2) are evaluated along with human TrkB and human TrkC. […] All FC2 on all eight channels are set to capture approximately 89 response units (RU) of antibody at a flow rate of 10 μL/min. The antibody sample is prepared at 1 μg/mL by dilution into the running buffer. […] Before the analysis cycle, the chip is regenerated with 3 injections of glycine (pH ˜1.5) at 100 μL/min for a contact time of 15 seconds on FC1 and FC2 in order to clean the surface of the chip.

Row | Binder | Kd | koff | kon
25 | B1 | 6.1 nM | 0.00069 s⁻¹ | 110000 M⁻¹ s⁻¹
26 | B2 | 10.5 nM | 0.0012 s⁻¹ | 120000 M⁻¹ s⁻¹
27 | B3 | 10.2 nM | 0.0012 s⁻¹ | 120000 M⁻¹ s⁻¹

Biological target: T3, Human TrkA Extracellular Domain Isoform 1 (33-414) (human, UniProt P04629 33-414)
T3 construct: SPR analyte; also called Human TrkA Isoform 1
T3 sequence (P04629 other isoform, or with tags, fused parts or gaps): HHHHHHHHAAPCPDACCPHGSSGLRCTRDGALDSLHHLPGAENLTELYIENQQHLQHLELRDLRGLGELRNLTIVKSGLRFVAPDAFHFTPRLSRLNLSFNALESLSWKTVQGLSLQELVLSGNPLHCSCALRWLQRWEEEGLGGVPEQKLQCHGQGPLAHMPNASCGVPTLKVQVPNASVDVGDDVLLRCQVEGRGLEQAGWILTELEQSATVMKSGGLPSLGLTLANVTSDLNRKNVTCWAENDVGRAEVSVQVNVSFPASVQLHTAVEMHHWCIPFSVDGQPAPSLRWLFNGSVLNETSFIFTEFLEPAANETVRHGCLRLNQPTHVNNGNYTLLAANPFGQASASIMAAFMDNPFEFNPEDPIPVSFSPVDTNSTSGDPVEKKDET
Experiment: SPR, mAb captured on Protein A chip, 37 C
Protocol: as §2

Row | Binder | Kd | koff | kon
28 | B1 | 3.9 nM | 0.00069 s⁻¹ | 180000 M⁻¹ s⁻¹
29 | B2 | 6.7 nM | 0.0013 s⁻¹ | 190000 M⁻¹ s⁻¹
30 | B3 | 6.7 nM | 0.0013 s⁻¹ | 200000 M⁻¹ s⁻¹

Biological target: T4, Rat TrkA Extracellular Domain (33-411) (rat, UniProt P35739 33-417)
T4 construct: SPR analyte
T4 sequence (P35739 other isoform, or with tags, fused parts or gaps): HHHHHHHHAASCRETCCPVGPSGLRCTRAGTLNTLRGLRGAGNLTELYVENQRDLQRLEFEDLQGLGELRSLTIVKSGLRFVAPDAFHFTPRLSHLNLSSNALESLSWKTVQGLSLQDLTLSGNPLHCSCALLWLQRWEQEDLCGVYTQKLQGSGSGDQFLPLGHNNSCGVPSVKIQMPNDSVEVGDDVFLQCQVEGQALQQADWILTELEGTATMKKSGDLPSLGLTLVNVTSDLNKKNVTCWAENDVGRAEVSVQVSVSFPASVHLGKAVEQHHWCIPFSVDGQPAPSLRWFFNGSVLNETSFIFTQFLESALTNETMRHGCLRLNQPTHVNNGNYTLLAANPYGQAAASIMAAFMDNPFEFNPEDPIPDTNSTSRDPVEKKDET
Experiment: SPR, mAb captured on Protein A chip, 37 C
Protocol: as §2

Row | Binder | Kd | koff | kon
31 | B1 | 5.1 nM | 0.00069 s⁻¹ | 140000 M⁻¹ s⁻¹
32 | B2 | 9.1 nM | 0.0012 s⁻¹ | 130000 M⁻¹ s⁻¹
33 | B3 | 9 nM | 0.0012 s⁻¹ | 130000 M⁻¹ s⁻¹

Biological target: T5, Human TrkA Extracellular Domain Isoform 2 (33-408) (human, UniProt P04629 33-414)
T5 construct: SPR analyte; also called Human TrkA Isoform 2
T5 sequence (P04629 other isoform, or with tags, fused parts or gaps): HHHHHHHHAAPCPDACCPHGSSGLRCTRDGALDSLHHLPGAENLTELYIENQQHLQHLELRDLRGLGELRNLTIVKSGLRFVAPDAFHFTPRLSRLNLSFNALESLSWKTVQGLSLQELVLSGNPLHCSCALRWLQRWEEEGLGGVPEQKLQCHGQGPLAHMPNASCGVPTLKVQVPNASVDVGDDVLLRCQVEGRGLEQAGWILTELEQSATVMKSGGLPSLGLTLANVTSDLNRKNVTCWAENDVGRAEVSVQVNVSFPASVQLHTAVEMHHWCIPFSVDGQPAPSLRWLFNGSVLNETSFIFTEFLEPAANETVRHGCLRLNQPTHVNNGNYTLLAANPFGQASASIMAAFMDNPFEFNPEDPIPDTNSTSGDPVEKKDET
Experiment: SPR, mAb captured on Protein A chip, 37 C
Protocol: as §2

Row | Binder | Kd | koff | kon
34 | B1 | 4.1 nM | 0.00072 s⁻¹ | 180000 M⁻¹ s⁻¹
35 | B2 | 6.8 nM | 0.0013 s⁻¹ | 190000 M⁻¹ s⁻¹
36 | B3 | 6.6 nM | 0.0013 s⁻¹ | 200000 M⁻¹ s⁻¹

Biological target: T1, recombinant human TrkA protein
Experiment: NGF-blocking ELISA on coated human TrkA, 100 nM btNGF; mAb 20 nM

Row | Binder | Absorbance 450 nm
37 | B1 | 0.2
38 | B2 | 0.15
39 | B3 | 0.15

Biological target: T1, recombinant human TrkA protein
Experiment: NGF-blocking ELISA on coated human TrkA, 100 nM btNGF; mAb 0.04 nM
Protocol: as §1

Row | Binder | Absorbance 450 nm
40 | B1 | 1.09
41 | B2 | 0.87
42 | B3 | 1.03

Biological target: T1, recombinant human TrkA protein
Experiment: NGF-blocking ELISA on coated human TrkA, 100 nM btNGF; mAb 0.63 nM
Protocol: as §1

Row | Binder | Absorbance 450 nm
43 | B1 | 0.38
44 | B2 | 0.25
45 | B3 | 0.3

Biological target: TrkA on rat NEUROSCREEN-1 cells (pheochromocytoma PC12 subclone) (rat, UniProt P35739 33-799)
Sequence (P35739 33-799): as the sequence (P35739 33-799) above
Experiment: cell-based or functional assay

Row | Binder | % Max Stimulation of neurite outgrowth | IC50, inhibition of NGF-induced neurite outgrowth
46 | B1 | 7% | 0.1 nM
47 | B2 | 10% | 0.07 nM
48 | B3 | 7% | 0.06 nM
